Measurements taken from US20180282719A1 (published 2018).
Blank lines part the entries; values can stand above or below the binder they belong to.

Tests used:
[1] = biological target: T1, recombinant soluble human IL-6 receptor (SR344) (human, UniProt P08887 20-344, biotinylated (sites not given) where immobilized via streptavidin or used in phage ELISA); experiment: SPR Biacore T100, biotinylated SR344 on streptavidin chip (model of membrane IL-6 receptor), antibody 0.5 ug/mL as analyte, bound at pH 7.4, dissociation at pH 7.4, 37 C
T1 construct: also called soluble IL-6 receptor; membrane-type IL-6 receptor (when biotinylated and immobilized on the chip)
T1 sequence (looked up): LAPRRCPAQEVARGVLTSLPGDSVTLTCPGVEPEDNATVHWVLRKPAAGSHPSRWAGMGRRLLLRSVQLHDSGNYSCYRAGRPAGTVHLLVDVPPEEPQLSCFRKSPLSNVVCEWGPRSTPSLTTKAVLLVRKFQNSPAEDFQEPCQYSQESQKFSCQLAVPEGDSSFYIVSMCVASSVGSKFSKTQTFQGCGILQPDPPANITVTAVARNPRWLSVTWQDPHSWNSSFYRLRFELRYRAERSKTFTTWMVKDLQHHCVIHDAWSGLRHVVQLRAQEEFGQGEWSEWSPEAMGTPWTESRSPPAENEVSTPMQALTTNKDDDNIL
Method: (§1) The binding to membrane IL-6 receptor was evaluated by evaluating the binding to the IL-6 receptor immobilized onto a sensor chip. SR344 was biotinylated according to a method known to persons skilled in the art, and the biotinylated SR344 was immobilized on the sensor chip via streptavidin by utilizing the affinity between streptavidin and biotin. All the measurements were carried out at 37° C., and the mobile phase buffer contained 10 mM MES (pH 5.8), 150 mM NaCl and 0.05% TWEEN® 20 (polyoxyethelene sorbitan monolaurate). The pH-dependent binding clones were injected therein under the condition of pH 7.4 and allowed to bind to SR344 (injection sample buffer: 10 mM MES (pH 7.4), 150 mM NaCl, 0.05% TWEEN® 20 (polyoxyethelene sorbitan monolaurate)), and the pH-dependent dissociation of each clone at the mobile phase pH of 5.8 was observed (FIG. 10).
(§2) The dissociation rate […]) at pH 5.8 was calculated using Biacore T100™ Evaluation Software (GE Healthcare) by fitting only the dissociation phase at pH 5.8, where 0.5 μg/mL of the sample was bound in 10 mM MES (pH 7.4), 150 mM NaCl, and 0.05% TWEEN® 20 (polyoxyethelene sorbitan monolaurate), and dissociated in 10 mM MES (pH 5.8), 150 mM NaCl, and 0.05% TWEEN® 20 (polyoxyethelene sorbitan monolaurate). Similarly, the dissociation rate (kd(1/s)) at pH 7.4 was calculated using Biacore T100™ Evaluation Software (GE Healthcare) by fitting only the dissociation phase at pH 7.4, where 0.5 μg/mL of the sample was bound in 10 mM MES (pH 7.4), 150 mM NaCl, and 0.05% TWEEN® 20 (polyoxyethelene sorbitan monolaurate), and dissociated in 10 mM MES (pH 7.4), 150 mM NaCl, and 0.05% TWEEN® 20 (polyoxyethelene sorbitan monolaurate).

[2] = biological target: T1, recombinant soluble human IL-6 receptor …; experiment: SPR Biacore T100, biotinylated SR344 on streptavidin chip (model of membrane IL-6 receptor), antibody 0.5 ug/mL as analyte, 37 C
Method: as §1, §2

[3] = biological target: T1, recombinant soluble human IL-6 receptor …; experiment: SPR Biacore T100, antibody on protein A/G chip, SR344 analyte, pH 5.8, 37 C
Method: (§3) Kinetic analyses of antigen-antibody reactions at pH 5.8 and pH 7.4 were carried out using a Biacore™ T100 surface plasmon resonance system (GE Healthcare) on the four antibodies: humanized PM1 antibody (WT) and H3pI/L73, CLH5/L73, and H170/L82 produced in Examples 2 and 4 (buffer: 10 mM MES (pH 7.4 or pH 5.8), 150 mM NaCl, and 0.05% TWEEN® 20 (polyoxyethelene sorbitan monolaurate)). Various antibodies were bound onto a sensor chip immobilized with recomb-protein A/G (Pierce) by amine coupling. SR344 adjusted to concentrations of 9.8 to 400 nM was injected to the chip as an analyte. […] All the measurements were carried out at 37° C. Association rate constants kₐ (1/Ms) and dissociation rate constants kd (1/s) were calculated using Biacore T100™ Evaluation Software (GE Healthcare), and dissociation constants KD (M) were calculated on the basis of those values (Table 5). Moreover, the ratio of the affinities at pH 5.8 and pH 7.4 were calculated for each clone to evaluate pH-dependent binding. All the measurements were carried out at 37° C.

[4] = biological target: T1, recombinant soluble human IL-6 receptor …; experiment: SPR Biacore T100, antibody on protein A/G chip, SR344 analyte, 37 C, ratio of pH 5.8 to pH 7.4
Method: as §3

[5] = biological target: T1, recombinant soluble human IL-6 receptor …; experiment: SPR Biacore T100, integrated RU of SR344 bound over ten cycles, 37 C
Method: The produced pH-dependent binding clones described above were analyzed using a Biacore T100™ surface plasmon resonance system (GE Healthcare) for their ability to bind to the antigen SR344 multiple times at pH 5.8 and pH 7.4. More specifically, the analysis was carried out as follows. All the measurements were carried out at 37° C. First, the sample antibodies described above were bound onto a recomb-protein A/G (Pierce)-immobilized sensor chip by amine-coupling, where the mobile phase buffer was 10 mM MES (pH 5.8), 150 mM NaCl, and 0.05% TWEEN® 20 (polyoxyethelene sorbitan monolaurate) (step 1). SR344 adjusted to a concentration of about 40 nM was injected as an analyte for 3 minutes at pH 7.4 and allowed to bind (the buffer for injected SR344 was 10 mM MES (pH 7.4), 150 mM NaCl, and 0.05% TWEEN® 20 (polyoxyethelene sorbitan monolaurate)) (step 2). Subsequently, the injection of SR344 was discontinued and a mobile phase of pH 5.8 was allowed to flow for about 70 seconds to expose the antibody/SR344 complex under acidic conditions (step 3). Ten sets of this binding (step 2)/acidity exposure (step 3) process were continuously repeated to observe the sensorgram in real-time, which is shown in FIG. 11. […] In the 10-set repetition of the binding (step 2) and acidic exposure (step 3), almost all H170/L82 and CLH5/L73 antibodies were able to bind to new antigens in each set. […]

[6] = biological target: T1, recombinant soluble human IL-6 receptor …; experiment: SPR Biacore T100, biotinylated SR344 on streptavidin chip (model of membrane IL-6 receptor), antibody 0.5 ug/mL as analyte, bound at pH 7.4, dissociation at pH 5.8, 37 C
Method: as §1, §2

[7] = biological target: T1, recombinant soluble human IL-6 receptor …; experiment: SPR Biacore T100, antibody on protein A/G chip, SR344 analyte, 37 C
Method: as §3

[8] = biological target: T1, recombinant soluble human IL-6 receptor …; experiment: SPR Biacore T100, antibody on protein A/G chip, SR344 analyte, pH 7.4, 37 C
Method: as §3

[9] = biological target: T2, soluble mouse IL-31 receptor (mouse, UniProt Q8K5B1 19-499); experiment: SPR Biacore T100, antibody on protein A/G chip, soluble mouse IL-31 receptor analyte, pH 5.5, 25 C
T2 sequence (looked up): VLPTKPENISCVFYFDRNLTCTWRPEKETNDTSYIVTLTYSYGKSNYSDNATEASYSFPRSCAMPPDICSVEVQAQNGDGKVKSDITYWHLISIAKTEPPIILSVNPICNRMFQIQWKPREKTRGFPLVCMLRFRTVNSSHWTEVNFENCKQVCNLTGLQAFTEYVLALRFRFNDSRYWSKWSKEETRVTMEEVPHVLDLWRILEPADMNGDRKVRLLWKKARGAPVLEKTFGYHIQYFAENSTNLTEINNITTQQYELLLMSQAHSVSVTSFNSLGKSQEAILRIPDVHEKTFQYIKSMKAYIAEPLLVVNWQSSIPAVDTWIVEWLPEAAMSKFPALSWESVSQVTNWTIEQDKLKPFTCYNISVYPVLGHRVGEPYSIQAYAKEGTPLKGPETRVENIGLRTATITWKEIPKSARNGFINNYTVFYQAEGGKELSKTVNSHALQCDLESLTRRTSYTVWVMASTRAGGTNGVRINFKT
Method: (§4) Kinetic analysis of antigen-antibody reactions at pH 5.5 and pH 7.4 was carried out using a Biacore T100™ surface plasmon resonance system (GE Healthcare) for the two types of antibodies prepared as mentioned above: Anti-IL31R wild type and Anti-IL31R clone 1 (buffer: DPBS(−) (pH 7.4 or pH 5.5), 150 mM NaCl, 0.01% TWEEN® 20 (polyoxyethelene sorbitan monolaurate), 0.02% NaN₃). The antibodies were bound to a sensor chip on which recomb-protein A/G (Pierce) was immobilized by amine coupling, and then the soluble mouse IL-31 receptor (prepared according to the method described in WO 2007/142325) adjusted to an appropriate concentration was injected therein as an analyte. All the measurements were carried out at 25° C. Association rate constants kₐ (1/Ms) and dissociation rate constants kd (1/s) were calculated using Biacore T100™ Evaluation Software (GE Healthcare), and dissociation constants KD (M) were calculated based on those values (Table 16). Furthermore, the ratio of affinity at pH 5.5 and pH 7.4 was calculated for each clone to evaluate the pH-dependent binding.

[10] = biological target: T2, soluble mouse IL-31 receptor; experiment: SPR Biacore T100, antibody on protein A/G chip, soluble mouse IL-31 receptor analyte, 25 C, ratio of pH 5.5 to pH 7.4
Method: as §4

[11] = biological target: T2, soluble mouse IL-31 receptor; experiment: SPR Biacore T100, antibody on protein A/G chip, soluble mouse IL-31 receptor analyte, pH 7.4, 25 C
Method: as §4

[12] = biological target: T2, soluble mouse IL-31 receptor; experiment: SPR Biacore T100, antibody on protein A/G chip, soluble mouse IL-31 receptor analyte, 25 C
Method: as §4

koff [1]: 0.00104 s⁻¹
kd ratio pH 5.8/pH 7.4 [2]: 5.5
Kd [3]: 74 nM
koff [3]: 0.028 s⁻¹
kon [3]: 380000 M⁻¹ s⁻¹
KD (pH 5.8)/KD (pH 7.4) [4]: 66.1
total amount of antigen bound over ten cycles relative to WT [5]: ~4 fold
koff [6]: 0.00567 s⁻¹
pH-dependent binding (affinity ratio) relative to WT [7]: > 15 fold
Kd [8]: 1.1 nM
koff [8]: 0.00079 s⁻¹
kon [8]: 710000 M⁻¹ s⁻¹
B1: CLH5/L73 (antibody, IgG1, V domains shown)
VH: QVQLQESGPGLVKPSETLSLTCAVSGYSISHDHAWSWVRQPPGEGLEWIGHISYSGITNYNPHLKGRVTISRDTSKNQFSLKLSSVTAADTAAYYCARFLARITAHDHWGEGTLVTVSS
VL: DIQMTQSPSSLSASVGDSVTITCQASQHISSHLNWYQQKPGKAPELLIYYGSHLHSGVPSRFSGSGSGTDFTFTISSLEAEDAATYYCGQGNRLPYTFGQGTKVEIE
notes: expressed and purified as IgG

Kd [9]: 22000 nM
koff [9]: 0.024 s⁻¹
kon [9]: 1100 M⁻¹ s⁻¹
KD (pH 5.5)/KD (pH 7.4) [10]: 1000
Kd [11]: 22 nM
koff [11]: 0.0033 s⁻¹
kon [11]: 170000 M⁻¹ s⁻¹
pH-dependent binding ability relative to WT [12]: ~300 fold
B2: Anti-IL31R clone 1 (antibody, human IgG1, lambda, V domains shown)
VH: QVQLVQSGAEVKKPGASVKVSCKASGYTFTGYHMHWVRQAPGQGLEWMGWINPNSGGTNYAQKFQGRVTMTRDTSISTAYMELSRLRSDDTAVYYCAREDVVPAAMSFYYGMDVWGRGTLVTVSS
VL: LPVLTQPPSVSVAPGQTARITCGGNNIGSKTVYWYQQEPGQAPVLVVYDDTDRPAGIPERFSGANSGNTATLTISRVEAGDEADYYCQVWDSSTDHGVFGGGTKLTVLG
notes: H chain (c1) / L chain (WT)
